In the nanobody polyreactivity screen of Harvey et al. (2022):

Assay: yeast display, Sf9 membrane polyspecificity reagent, FACS + sequencing; frameworks hold sequencing errors
Method in brief: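 Genes from sorted yeast were amplified by colony PCR, read by MiSeq 2 × 250 sequencing and filtered on CDR length. These cells carried a synthetic nanobody library in Saccharomyces cerevisiae BJ5465 and were sorted by FACS into low and high (top ~1%) gates on anti-HA and streptavidin fluorescence. Polyreactivity is labelled according to the gate of origin.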

Sequence	polyreactivity (PSR sort gate)
QVQLVESGGGLVQAGGSLRLSCAASGRTIRHNAMGWYRQAPGKERELVAAISRSGGSTYYADSVKGRFTISRDYAKNTVYLQMNSLKPEDTAVYYCAAGYHIIYTPEYYYWGQGTQVTVSS	high polyreactivity
QVQLVESGGGLVQAGGSLRLSCAASGRTIRNNAMGWYRQAPGKERDLVASITRSGGSTYYADSVKGRFTISRDNANNSVSLQLNSLKPEDTSVFYCNRVAHSLTYPTDHEFNYWGQGTQVTVSS	high polyreactivity
QVQLVESGGGLVQAGGSLRLSCAASGRTIRTYTMGWYRQAAGKERELVAAISWSGSSTYYADSVKGRFTISRDNAKNTVYLQMNSLKPEDTAVYYCAARGLYDYGYWGQGTQVTVSS	high polyreactivity
QVQLVESGGGLVQAGGSLRLSCAASGRTIRWYTMGWYRQAPGKERELVAGISSSGGSTYYAESVKGRYTISRDYAKNTVYLQMNSLKPEDTAVYYCAASAAYYGFYKSVSYEYWGQGTQLTVSS	low polyreactivity
QVQLVESGGGLVQAGGSLRLSCAASGRTIWYYAMGWYRQAPGKESELVAAISWSGGTTFYADSVKGRFTISRDNAKYTVYLQMNSLKPEDTAVYYCAKKCIGYQEWIHSTRRYDYWGQGTQVTVSS	low polyreactivity
QVQLVESGGGLVQAGGSLRLSCAASGRTIYGYAMGWYRQAPGKERELVAAISWTGGRTYYADSVKGRFTISRDNAKNTVYLQMNSLKPEDTAVYYCNARRRGDSGDGYIYGYWGQGTQVNVSS	high polyreactivity
QVQLVESGGGLVQAGGSLRLSCAASGRTIYRYAMGWYRQAPGKERELVAAITRRGVNTYYADSVKGRFTISRDNAKNTVYLQMNSLKPEDTAVYYCAAENGALVTYGYWGQGTQVTVSS	high polyreactivity
QVQLVESGGGLVQAGGSLRLSCAASGRTIYYYARGWYRQAPGKERELVAAITLRGGSTYYADSVKGRFTISRDNAKKTVYLQMNSLKPEDTAVYYCAKESTVRRYDYWGQGTQVTVSS	low polyreactivity
QVQLVESGGGLVQAGGSLRLSCAASGRTLAFNAMGWSRQAPGKERELGAGIRNGTSTNYADSVKGRFTISRVNAKNTVYLQMNCLKPEDTADYYCNVPYYLQSYLSGYDYWGQGTQVSVSS	low polyreactivity
QVQLVESGGGLVQAGGSLRLSCAASGRTLARNAMGWYRQAPGKERELVARIRDSGGSKYYADSVKGRFTISRDNAKNTVYLQMNSLKPEDTAVYYCAARSRLVYSYYTYWGQGTQVTVSS	high polyreactivity
QVQLVESGGGLVQAGGSLRLSCAASGRTLAYYVMGWYRQAPGKERELVAAISGRGGRTNYADSVKGRFTISRDNAKNTVYLQMNSLKPEDTAVYYCAAYRTGYNVDYYYWGQGTQVTVSS	high polyreactivity
QVQLVESGGGLVQAGGSLRLSCAASGRTLDVNAMGWYRQAPGKERELVAAISYSGGITYYADSVKGRFTISRDNAKNTVYLQMNSLKPEDTAVYYCAVVGGYPSYTVDYWGQGTQVTVSS	low polyreactivity
QVQLVESGGGLVQAGGSLRLSCAASGRTLFFYAMGLYRQAPGKERELVAAISSSGTRTYYADSVKGRFTISRDNAKNTVYLQMNSLIPEDTAVYYCNKVKYYRTGGMEYWGQGTQVTVSS	high polyreactivity
QVQLVESGGGLVQAGGSLRLSCAASGRTLGDYGMGWYRQAPGKETQLVAVITSGGSPYYADSVKGRFTISRDNAKNTVYLQMNSLKPEDNAVYFCNARHPYYTVQTGGYDYWGQGTQVTVSS	low polyreactivity
QVQLVESGGGLVQAGGSLRLSCAASGRTLGGYAMVWYRQAPGTERELVAAITRRGGSTYYADSVKGRFTISRDNAKNTVYLQMYSLKQEDTAVYYCAARYLYSDEYWDKFYYWGQGTQVTVSS	high polyreactivity
QVQLVESGGGLVQAGGSLRLSCAASGRTLGGYTMGWYRQAPGKERELVAAITTGGSTNYADSVKGRFTISRDNAKNTVYLQMKSLIPEDTAVYYCATDLVFDKRYWYDFWGEGTQVTVSS	low polyreactivity

Sequence	polyreactivity (PSR sort gate)
QVQLVESGGGLVQAGGSLRLSCAASGRTLGPNAMGWYRQAPGKERELVAGITGRGGITYYTDSEKGRFTISRDNAKNTVYLQMNSLKPEDTAVYYCAARRYRFAGDYRMYYWGQGTQVTVSS	high polyreactivity
QVQLVESGGGLVQAGGSLRLSCAASGRTLGSYAMGWYRQAPGKETELVAAIRGSGVSTYYADSVKGRFTISRDNAKNTVYLQMNSLNPEDTAVYYCAARSYIRVWKKGAVQRSVYYWGQGTQVTVSS	high polyreactivity
QVQLVESGGGLVQAGGSLRLSCAASGRTLGVNAMGWYRQAPGKERELVAAISTRGTTTNYADSVKGRFTISRDNAKNTVYLQMNSLKPEDTAVYYCAVRSRTPRAYYYWGQGTQVTVSS	low polyreactivity
QVQLVESGGGLVQAGGSLRLSCAASGRTLGVYTMGWYRQAPGKERELVATISWDGGITYYADSVKGRFTISRDNAKNTVYLQMNSLKPEDNAVYYCAAVDHSYGWMDYWGQGTQVTVSS	low polyreactivity
QVQLVESGGGLVQAGGSLRLSCAASGRTLGYYAMGWYRQAPGKERELVAAISRSGGSTYYADSVKGRFTISRDHAKNTVYLQMNSLKPEDTAVYYCAATYGPSRYRYDYWGQGTQVTVSS	high polyreactivity
QVQLVESGGGLVQAGGSLRLSCAASGRTLIWYTMGWYRQAPGKERELVAAITSGGSTYYADSVKGRFTISRDNAKNTVYLRMNSLKPEDTAVYYCAAVYPAAPRAYGYWGQGTQVTVSS	low polyreactivity
QVQLVESGGGLVQAGGSLRLSCAASGRTLKKNAMGWYRQAPGKEMELVAAITSSTGITYYADSVKGRFTISRDNAKNTVYLQMNSLKPEDTAVYYCAADPPRTLSLIFYSREWSYDYWGQGTQVTVSS	low polyreactivity
QVQLVESGGGLVQAGGSLRLSCAASGRTLKVYAMGWYRQAPGKERELVAAINNGGSTNYADSVKGRFTISRDNAKNTVYLQMNSLKPEDTAVYYCNAVYYARYRKYTYYYWGQGTQVTVSS	high polyreactivity
QVQLVESGGGLVQAGGSLRLSCAASGRTLLKNAMGWYRQAPGKEREFVAAITYSSGSTYYADSVKGRFTISRDNAKNTVYLQMNSLKPEDTAVYYCAKTNFSQSSRYNYDYWGQGTQVTVSS	low polyreactivity
QVQLVESGGGLVQAGGSLRLSCAASGRTLNYNVLGWYRQAPGKERELVASITSRGGSTRYADSVKGRFTISRDHAKNTVYLQMNSLKPEDTAGYYCAARYTTARSSYDYWGQGTQVTVSS	high polyreactivity
QVQLVESGGGLVQAGGSLRLSCAASGRTLRGNAMGWYRQAPGKEREFVAAITRRGGSTYYADSVKGRFTISRDNAKNTVYLQMNSLKPEDTAVYYCAAEGYDWIYLYYGLGYWGQGTQVTVSS	low polyreactivity
QVQLVESGGGLVQAGGSLRLSCAASGRTLRGYAMGWYRKAPGKEREFVAAISSRGGSTYYADSVKGRFTISRDNAKNTVYLQMNSLKPEDTAVYYCAALRPVFATSHARDYWGQGTQVTVSS	high polyreactivity
QVQLVESGGGLVQAGGSLRLSCAASGRTLRHYAMGWYRQAPGKERELVAAISSTGSSTYYADSVKGRFTISRDNAKITVYLQMNSLKPEDTAVYYCAADKYTWDAGGVVYWGQGTQVTVSS	low polyreactivity
QVQLVESGGGLVQAGGSLRLSCAASGRTLRHYTMGWYRQAPGKERELVAAITSRGSSTYYAESVKGRFTISRDNAKNTVYLQMNSLTPEDTAVYYCNATYVRLTQYFPRLYYPYYFWGQGTQVTVSS	low polyreactivity
QVQLVESGGGLVQAGGSLRLSCAASGRTLRIYAMGWYRQAPGKERELVAAITSSGRTNYADSVKGRFTISRDNAKNTVYLQMNSLKPEDTAVYYCSADYYYYVAGVHYDYWGQGTQVTVSS	low polyreactivity
